For the series, the target named is AAV capsid expressed by the standard BEV1 infection and the v-cath deleted BEV2 infection in Sf9 cells.

One protein from patent US20210395777 can be followed below.

B1: V-CATH protease (Viral Cathepsin), encoded by the baculovirus v-cath gene of the BEV (protein)
chain: PLEFDWRRLNKVTSVKNQGMCGACWAFATLASLESQFAIKHNQLINLSEQQMIDCDFVDAGCNGGLLHTAFEAIIKMGGVQLESDYPYEADNNNCRMNSNKFLVQVKDCYRYITVYEEKLKDLLRLVGPIPMAIDAADIVNYKQGIIKYCFNSGLNHAVLLVGYGVENNIPYWTFKNTWGTDWGEDGFFRVQQNINACGMRNELASTAVIY
In the case of B1, the “degradation products of the AAV capsid on Western immunoblot (BEV1 against v-cath deleted BEV2)” value is recorded as “Deletion of v-cath eliminated the degradation products”.
